Source: publication PMC7307210

Molecular target: SAR1A (human) (UniProt Q9NR31)
Assay: liposome flotation assay; SAR1 and SEC31A-af incubated with 100-nm synthetic liposomes and GMP-PNP, 30 min at 37 °C, floated through a sucrose gradient in HKM buffer (pH 6.8); SDS-PAGE and SYPRO-Ruby staining; SEC31-af signal normalized to SAR1

A fold recruitment relative to SAR1B of 2 fold was found for “GTPase-activating fragment of SEC31A (from UniProt O94979 1-1220) (domain or fragment)” in this work.
